Reference: patent publication US20230183346A1 (INSERM INSTITUT NATIONAL DE LA SANTE ET DE LA RECHERCHE …, published 2023)

Target: T1, human BTLA (B and T lymphocyte attenuator), BTLA isoform 1 precursor (Homo sapiens) (human, UniProt Q7Z6A9 31-289)
T1 construct: BTLA was presented on CD3+ T cells of PBMC, on COS cells transfected with human BTLA in p3xFlag-myc-CMV25 (this construct may carry tags; not described), and on L-BTLA fibroblasts stably transfected with human BTLA; also called CD272
Assay: flow cytometry on CD3+ T cells among PBMC, 0.01-10 ug/ml
Protocol: T cells (CD3+) among PBMC were stained for BTLA with the anti BTLA mAbs at various concentration (from 0.01 μg/ml to 10μ,g/ml). […] Then COS transfected with human BTLA were incubated with the anti BTLA mAbs and then with HVEM-Fc before staining with an anti human IgG Fc PE. The percentage of inhibition was determined as 100-maximum of percentage of stained cells. […] The median fluorescence intensity of cells was determined. […] On the other hand, 7.1 and 8.2 antibodies were not able to compete against 4C7 mAb at a high dose (FIG. 3). […] Finally, γδT were obtained after a positive sorting of fresh purified PBMC and stained for Cell Trace Violet to follow the proliferation. Cells were incubated 5 days in IL2/Zometa with the different mAbs prior to analysis by flow cytometry. The addition of antibodies in the culture of the γδT lead to an upregulation of their proliferation. Cells incubated with the HVEM 18.10 mAb disclosed in WO2014184360 is able to proliferate more than cells incubated with the mock control (IgG1) (FIG. 4).

B1: 629.3 mAb (antibody, V domains shown)
VH: QVQLRESGPGLVAPSQSLSITCTVSGFSLNTYGVSWVRQPPGKGLEWLGVVWGDGNTNYHSVVISRLTINKDNSKSQVFLKLNSLQTDDTATYYCAKCYGSRFDYAMDYWGQGTSVTVSS
VL: DIVMSQSPSSLAVSIGEQVTMSCKSSQSLLSSRTRKNYLAWYQQRPGQSPKLLIYWASTRESGVPDRFTGSGSGTDFTLTISSVQAEDLAVYYCKQSYNLPTFGGGTRLEIK
notes: Mouse monoclonal antibody, detected with anti-mouse IgG
binding result: binds
